Measurements published in patent US5935927A, “Compositions and methods for stimulating amyloid removal in amyloidogenic diseases using advanced glycosylation endproducts” (The Picower Institute For Medical Research, priority 1996, dated 1999).
Like-named read-outs stand apart in the source and are kept apart here.

Columns and labels:
soluble βAP = target: T1, soluble βAP (Homo sapiens, UniProt P05067); test: Thioflavin-T fluorescence assay of βAP aggregation and seeding; assay type: biochemical; conditions: for effect on fluorescent aggregate formation of βAP: 400 μM βAP 1-28, 0.1M sodium acetate pH 7.0, 100 mM glucose, 0.05M aminoguanidine, FIG. 4; for spontaneous formation of Thioflavin-T fluorescent aggregates: FIG. 1
T1 construct: Co-incubation of 400 μM βAP 1-28 in 0.1M sodium acetate, pH 7.0, with 100 mM glucose; purchased Bachem (Torrance, Calif.); host or cells: chemical synthesis
T1 sequence (P05067 672-699): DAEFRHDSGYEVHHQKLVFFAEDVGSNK
From the text: Aggregation and Seeding Reactions. Synthetic, HPLC-purified peptides representing the first 28 (βAP 1-28) and the first 40 amino acids (βAP 1-40) of the 42 amino acid βAP were obtained from Bachem (Torrance, Calif.). Aggregation of soluble βAP 1-28 or βAP 1-40 at different concentrations was initiated by addition of 0.1M sodium acetate (NaOAc) at the indicated pH (between 4.7 and 7.5) and continued for the indicated times. Quantitative aggregate formation with sub-millimolar βAP concentrations was detected using the procedure of LeVine (1992, Protein Science 2:404-410). Briefly, fluorescence of aggregates added to 10 μM Thioflavin-T (Aldrich)/50 mM potassium phosphate buffer, pH 6.0, was measured upon excitation at 450±5 nm and detection of emission at 482±10 mn on a Perkin Elmer LS-50B spectrofluorimeter. Where indicated, small amounts of pre-formed aggregates or "nucleation seeds" were added to the soluble βAP and aggregation initiated with 0.1M sodium acetate.
Generations of "Seeds". […] After incubation, protein concentrations of seed preparations were measured and adjusted with buffer to 150 μM final concentration. […] Lysines at positions 16 and 28 of βAP contain primary amino groups which may react with reducing sugars to generate advanced glycosylation endproducts of AGEs. Indicated amounts of glucose and/or aminoguanidine, a potent inhibitor of advanced glycation and crosslink formation (Brownlee et al., 1986, Science 232:1629-1632), were also added to solutions of βAP before sodium acetate in some experiments.

[1] = tested on: insulin-producing β-cells of the adult pancreas; conditions: human cells; Lorenzo et al. 1994; cited from earlier work
[2] = tested on: insulin-producing β-cells of the adult pancreas; conditions: rat cells; Lorenzo et al. 1994; cited from earlier work

Compound: N=C(N)NN [aminoguanidine]
- effect on fluorescent aggregate formation of βAP (soluble βAP): can inhibit the AGE-enhanced aggregation of βAP

Compound: O=C[C@H](O)[C@@H](O)[C@H](O)[C@H](O)CO [glucose]
- effect on fluorescent aggregate formation of βAP (soluble βAP): stimulates fluorescent aggregate formation

Compound: human amylin fibrils: fibrils of the 37 amino acid islet amyloid polypeptide (IAPP), amylin (KCNTATCATQRLANFLVHSSNNFGAILSSTNVGSNTY; Islet amyloid polypeptide fibrils; UniProt P10997 34-70, looked up)
- toxicity to β-cells [1]: toxic
- toxicity to β-cells [2]: toxic

Compound: βAP 1-28: synthetic peptide representing the first 28 amino acids of the 42 amino acid βAP
- spontaneous formation of Thioflavin-T fluorescent aggregates (soluble βAP; 600 μM, pH 7.2): spontaneously and rapidly formed Thioflavin-T fluorescent aggregates within minutes
- spontaneous formation of Thioflavin-T fluorescent aggregates (soluble βAP; concentrations below 300 μM): aggregated very slowly with a considerable lag before fluorescent aggregates were measurable
